Where no end group is shown, it is not given here.

The target in one experiment is T1, CRHR2 γ (Homo sapiens, UniProt Q13324, DEL106-106).
T1 sequence (Q13324 with tags, fused parts or gaps DEL106-106): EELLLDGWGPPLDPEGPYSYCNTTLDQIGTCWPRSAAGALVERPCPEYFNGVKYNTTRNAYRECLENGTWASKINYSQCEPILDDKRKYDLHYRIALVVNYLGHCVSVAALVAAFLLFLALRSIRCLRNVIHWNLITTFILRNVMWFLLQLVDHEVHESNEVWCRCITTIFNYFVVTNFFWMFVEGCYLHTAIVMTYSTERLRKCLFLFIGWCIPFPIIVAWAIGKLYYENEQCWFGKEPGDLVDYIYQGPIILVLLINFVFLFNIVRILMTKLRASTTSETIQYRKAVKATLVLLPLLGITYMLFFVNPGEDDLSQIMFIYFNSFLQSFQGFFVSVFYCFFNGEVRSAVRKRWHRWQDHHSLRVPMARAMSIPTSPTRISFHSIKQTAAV
As to the kind of experiment: Whole cell adenylate cyclase assay (cAMP accumulation) in HEK293EBNA cells expressing CRHR2γ. In kind it is cell-based. The following applies: rank order only; summary statement. A general note: cAMP levels reflect the balance of adenylyl cyclase and phosphodiesterase activity.

The next experiment concerns the target T2, CRHR2 γ receptor (Homo sapiens, UniProt Q13324, DEL106-106).
T2 construct: the full length CRHR2 γ cDNA (original cDNA library clone) was subcloned; expressed in transfected cells; membranes
T2 sequence (Q13324 with tags, fused parts or gaps isoform Q13324-3 DEL92-92): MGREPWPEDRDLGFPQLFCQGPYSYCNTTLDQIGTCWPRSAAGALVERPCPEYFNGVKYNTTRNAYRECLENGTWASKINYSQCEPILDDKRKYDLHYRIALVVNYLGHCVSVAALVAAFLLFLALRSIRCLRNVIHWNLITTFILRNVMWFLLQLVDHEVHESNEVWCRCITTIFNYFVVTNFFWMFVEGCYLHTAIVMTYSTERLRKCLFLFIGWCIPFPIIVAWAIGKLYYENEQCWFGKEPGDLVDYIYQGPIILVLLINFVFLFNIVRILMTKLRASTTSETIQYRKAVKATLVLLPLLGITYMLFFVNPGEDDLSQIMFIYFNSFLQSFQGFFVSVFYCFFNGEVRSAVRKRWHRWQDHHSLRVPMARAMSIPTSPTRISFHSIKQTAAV
As to the kind of experiment: Displacement of 125I-tyr-0-sauvagine from membranes of HEK293EBNA cells expressing CRHR2γ. In kind it is binding. The following applies: 60-70 pM 125I-tyr-0-sauvagine; 23° C., 4 hours; read-out: approximate IC50 for displacement of 125I-tyr-0-sauvagine. On the technique in general: Displacement assays read how much labelled ligand stays bound in the presence of the test substance.

Description for CRHR2 γ receptor: Buffer consisted of 50 mM HEPES, 10 mM MgCI2, 2 mM EGTA, and 1 μg/ml each of aprotinin, leupeptin, and pepstatin at a final pH of 7.0. Bacitracin at 0.15 mM and ovalbumin at 0.1% were added to the buffer on the day of use. Assays were performed at 23° C. for 4 hours in a final volume of 200 μl in 96-well microtiter plates. Reactions were initiated by the addition of 10-20 μg of membrane homogenates and terminated by rapid filtration through presoaked (0.3% polyethyleneimine) glass fiber filters using an Inotech 96-well harvester. The filters were washed quickly 3×with ice-cold solution (PBS+0.01% TritonX-100, pH7.2), dried briefly, then placed into polystyrene tubes and counted on an Isomedic 10/880 γ counter (counting efficiency ~80%). Data was analyzed by nonlinear regression analysis using the computer program MacLigand. Determinations were made from at least 3 separate experiments.

Consider “r/h CRH: rat/human corticotropin-releasing hormone, agonist peptide”, for which, in the experiment with CRHR2 γ, the “potency of stimulation of adenylate cyclase activity (rank order), measured by intracellular cAMP accumulation” value was “sauvagine>urotensin>rat/human CRH”.

For orientation: IC50 means the concentration at which inhibition is half-maximal. In the case of “urocortin: mammalian neuropeptide related to fish urotensin I and to corticotropin-releasing factor (DNPSLSIDLTFHLLRTLLELARTQSQRERAEQNRIIFDSV; ends and bridges not checked; UniProt P55089 83-122, looked up)”, the IC50 in the experiment with CRHR2 γ receptor was about 2 nM.

(Values after US5888811A, “Corticotropin-releasing hormone receptor” (DuPont Pharmaceuticals Company, priority 1997, dated 1999).)
